Experimental data: the domain aggregation screens of Martell et al. (2025)

Experiment: soluble fraction after stress (log2 fold change); higher = more stays soluble; pooled small domains, quantitative proteomics
Conditions: stress: 50 degC
Outline: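 Pooled custom libraries of small protein domains were each held under stress at 50°C. The read-out, high-throughput quantitative proteomics, tracked how much of each protein stayed soluble. This is reported as a base-two log fold change used to indicate aggregation propensity. Higher values mean more protein remains in solution.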

Sequence | soluble fraction (log2)
HMDPSDQLYTVPPSAEGLRLDLFLVQHVPHMTRALATQLTGAGQVRVNGRRAKKGDRLPSGAQVRLEQAP | -0.256
HMDPSHGESRENLDIMRIIDETHLEYPSWGYRKMTDHLRANHGYTINRKRVRRLMRLMDIIALFPG | -1.47
HMDPSVTGLLTRLGISPQTAQELAGQYEEPYILEKIAIVEAHPEYVKNAAGFVITALQEDWKD | -0.255
HMDPTHDMHFLVKDQVTGQPLPNMPYRLQLDNGQTLTGRTDALGMTEKISGHSPHIASIEVPY | 0.18
HMDPVILDINSVKALLGISNKADFMAELSRLVVTEGDKKMIIPLAKEVGIDNVAVYKRNEIENISNYK | -0.1
HMDQAEDVLSIPVDALMRGNQVYIKDDTVTEQQGPIPAGFKAVEVETGLISDSYVEIKSGLSEGDTVYVAE | 0.141
HMDQESFGYFHVKYADVKQVADLVQKLNIPAVTWADERTRRLVALGSPATLQRISQVLNMVDL | -0.721
HMDQHPYGEDSFRGDNPPAGFDIKGNEDSMKFHEPSSPWYGRTIAEVWFRSAAAAEAAGFVNAV | -0.113
HMDQINNDLRKLIEFLPEDQKTVLKMRHFQEMSFKEIAKATGVSINTALGRMRYALINLRKLIEENEI | -1.41
HMDQPLIEPLSERELEVLSLIAAGYSNAEIAERLVIAVGTVKRHINNLYGKLGAGSRTQALAIAREIGLM | 0.0589
HMDQTKYDAIITEAKKLTAEGQYKESEEKLATIPVSDLGKPHYSIVKETVEKLNNQNNEGLKRQEEVAVE | -0.02
HMDQVLHQLVEVLRRSEIRISPAETLDAFKVLRNVGIDNKSLLREALALTLAKSIHEKIIFYETFDEFFT | -1.16
HMDRADIDAVDAEWVRATMERLGLRAKHIESHTGISKSTLSILLNGHRPLTRWHKIAFYYLFKHIEF | -2.68
HMDRDQNVEEGQRSLKSEMGRFGLLIANMDDLAERVNYGNAEDMYAAIGAGDLRLMQVVHAAEEMLG | 0.127
HMDRENNITAGREILEKELSRLALNMKMVNLQDYAARFNVKHSDDILAGIGAGDIRPAHIVNAIAEKLT | 0.144
HMDREQLELYVGEVRVLQVGELRRIAIGNGKVLQASALDRGQLLLIPEAPGQSVLYLWTRDGTERHLSISV | -0.203
HMDRESFIKLGRELARSAFAHVGQKSTEKALETAADVLRLKDPNEVLARLGSAELTGRQVVQAIYPELI | -0.0704
HMDRFRYYITEDSVQRGTYPYVDETTLKRFTSQLHKYEQGMISAYGYLEYSKPLTAEQIKDYTLMPSP | 0.0317
HMDRFVLQLSKRYYDSSIEGVRKALAAFPVKTELLDQDRGGRPFYHENGKENEPVFRIMFHPEEGM | -0.542
HMDRIISTPMPGRVVKIPVTEGEPVAKGATVITISAMKMESEYKSPIDGIVKKIHVSEGDNINANQPLIEI | -0.178
HMDRKFFYEDQYQDYLGEELKVSFFDTDNKKTVRGTLSEVTPHGIKINLEQETQEIPFSSIIQANLI | 0.201
HMDRPARDEAQSWLADVLADGPVPTAEIREEAEAAGLAWRTIQRARIALSVEPIRGDGRNAWLWQLPG | -1.42
HMDRQIQITVAENEAGQRLDAFLAAKIPDMSRSYIQKLIEDGLILVNGQSTKGKVKTYSGMNIEVYMPE | 0.166

Sequence | soluble fraction (log2)
HMDRRDEYHQHLLRLLLSGEIRDKDELQRRKVKLSGEYGLAGVPKNSETLALVPPDRLPEVLDILR | 0.065
HMDRSIGDIIAELRDLSAEQVERVLAHQRETGVRFGEAAVALGYASKEDVLFALSQQFHYPYAPEE | -0.146
HMDRSVTAAELRLAAMDLLARREHGSQELEAKLSRRFHKRHYDVELLRSVIEQLTVEGLLSDERFAVS | -0.154
HMDRVTYPVSFNGKVRFQLELDAGMNAKEVETAALGHEKTAAQIEGKTIRKVIVVPGRIINIVV | -0.259
HMDRWTPLVVAVLSRGSHRFGELRAAIGGITPKVLTDTLRSMERDGLITRDQAPGVPPRVDYALTPLGS | -1.12
HMDSALKDDLNAFVKKLDVESQTLFMRRYFLGESVSSLASRFEMSEDNVGVKLFRIRAKLKKYLTGKGYD | -2.28
HMDSAMMDLVMRVQLALFTKGYDVGIIDGKIGPKTRAQIKRYQSDNRLSSTGTLTTSLLTSLGIQ | -1.88
HMDSATDRVALKELLNTLSARERTIITLRYFSDQTQTQVAKSLGISQVQVSRLENAILQRLRKL | -1.94
HMDSDELEAFRLITSVNGVGPKLGIAILSEFTAEKLTVFIASGDAKALTAASGVGIKLAQRIVLELKDKVG | -0.199
HMDSDFIKIEVLFNERNRLDLKAMMEASGFTDRGQFLSIMADLTGDENWDRNLDRGDIFYLPRSFTI | -1.22
HMDSDIGQQLKILLTVGTFMPSTELKAIAQQFGMKKPTDLKEWVELESDTQRIKGNPTKGYWINEINDL | -0.562
HMDSEEVYQMTKHKMDAAQISVAKRIHINLVLVKLLELHHLGYDLRHYHAQHHAFIKRLNLPEYFRFD | -1.66
HMDSEKVLTNLKEELVLQLSNIEPYGYVPSQYWYSKVQRVQSVQELGKYVDGDLEAFVMKYAEDWESQK | -0.191
HMDSGFMRTTQSYTVARLAEIFRLSGEDYLAVLREYDGWYQDLTSTKDLIRKGSDVPVPEGV | -1.61
HMDSGLEQAKTAALENAELETSQVTFIKAELDYDDGKKVYEIEFVTSAMKYEYQVKADDFSILEMSKETIE | -0.39
HMDSHSAESVRQRIKDMIAAEASKSILSDDTIVENLKSEGIEIARRTVAKYRESLNIPSSIQRRRIARSEA | -0.0963
HMDSILMPGVVNKELREALAILKNEGIGWADPEYASSTVTRNYVISTDPVEGIELAPGQKVRLVVSLGPKP | -0.00706
HMDSIQMKNNSILYYGNTAGYLDAKRNTAVVDPMFRTDEMESYLSEQKGLSVEWASGTYDRLT | 0.149
HMDSLEIEEPITVKSLSAASGLKISDIIRKLMQEGIMATANQVIDREQAEAVLIDYNVDLVVKR | -0.248
HMDSLNWVEKIINTLPEQQRLIIQMRDIEQYEFAEIAKILEMNETAIRVALSRARKTIREFMIKTH | -1.07
HMDSLSLTELRIDSASPWIGNRISDFSPYAGELVIMIIRGEETIVPNGDTIILDKDLLVIYSS | -2.18
HMDSNFNYELVGFRLDDMGLNSSVIVKRNNQEFVIQKGDLLENKYLLNSVTKKNINFSYLGKNYQI | -0.789
HMDSNPLSEREQEVLQLVAKGASNQTIAEQLFLSNGTIRNYMTAIFNKLNANNRTDAVRIARENGW | -0.144

Sequence | soluble fraction (log2)
HMDSPVEEWANRGLAYDPSLVTETMAKLYAKQGQIGLARKAFKRLALIYPEKSVYFAFQLKKLSNN | -1.63
HMDSPVLTAEIKALIDKELEQNAVKLATGLKKQRKRATDIHDALIRQGHEVSYRTVVRYIRNKTAQTS | -0.061
HMDSTSEILKVIQNIVKKEDPYHPLSDDKISNLLNDLDYQISRRTVAKYRDILTIPSSSKRRKL | -0.432
HMDSVEMFSPILGMNANMDLDTLTQTRDKLLEKYKDDEQLIGLVNKTYDYFNEILLKQFLIEELEKNE | -0.153
HMDSVFGVVTSSDGVKLRKEASTISKVLTVLPYGTEVDVDRIGSEWIRIVTDGGQKGYVSADYLAVREGER | 0.206
HMDSVPEEQLRQLALDKAKEVKRWGQPVELAKMNAHDRRIIHINLQDDPEIETRSEGEGALKSVIISLKK | 0.172
HMDSYADVLSDYRGKYKTNTISGLKGLRDKIREDMLAAADSLDFEKAALLRDEMNDLNKKIELKEKT | 0.505
HMDTERLYAYAWQTHLKQFGLNISEEEIRQFVGVDDRIVHSFYAKTVPLDDFENTMFSLGEIIQQSL | -2.99
HMDTFNVIARQEIDGILYEYKIMTVEDYKNQSPENLAVIYENIKAVMEQYDLSEDDADAILVDLLG | -1.12
HMDTIRINSGSTVKEVAEYLGIPVPEVIKKLMSMGELATLTKTLSDDHIEVLAEEFEKKIKIVHVGEEAD | 0.0343
HMDTITDSYTLEKGKLRAKVMEYELPESKKKEYSATFEYRGVYYHMIGIIEKADFEEILKNLHFP | -0.165
HMDTIVVAARSIQARQTLTESDLRVEEQEIGAASDKYYTDIAEAVGLVSSRRLSPGQPILRTM | -0.28
HMDTLKDFISGVSIVFENKYSVGDNVTIGDFRGDVIELGMKTTKIRAYTGEVLIIPNHLVEKVINH | -1.51
HMDTLRARQEAAYRFLSAIAGDWRNYEEANRALFAGDAARFQDLTESWPADVRDHARHLASAAFSS | -0.543
HMDTNAIIGLRIKNLRTEKKYTLKYLSENTGLSIGFLSQLERGMTSIAIDSLDKISKVLDVELSSFFT | -1.24
HMDTNELIDRYVNEVGQHLPRKTRADIEMELRSLLLDTLEEQSGGEPTPKMAAEVLREFGHPEEIAAQYH | -0.0557
HMDTRKKLEQIFKLFDKTGTGMVNIDEFKSVLKLFMEEIDEKFGNYFIAYFDENGDGKIEFEEFADVVL | -0.0635
HMDTSAHEVLSAIRSIIEDEDKRHPLSDEAITSRLSQQGYDIARRTVAKYRERLGLPVARLRRE | -0.0213
HMDVALEALDESDGAVRLQFSGALQTYLNDSTTAASLEAISKTFRAFYEAAGRPVDTLEVYAAGEPVT | 0.06
HMDVDKQLDQLLAAMIPDKSLRQTIKTKAFNELVDNELADKDISSWTKQTMDVFMTRAEDMFGAM | -0.136
HMDVEMLIDKYQLNDSEAEVLRFMKKNRQSLKTIGIRDVAKATYVSTATIINMAKKIGYSGYSELVFALGN | -0.0472
HMDVNAQAGYDKLQSNQLDGARHDYEQALKTDPNNVDTLLALAAIAQRQGRSADADGYRQRAIDAD | -0.124
HMDVNHVIIDHKGNSIQAIIDSIDLDNVYYQSKIKKESEVIDIDKVYFIFNDFDRVYHYDWSYYENL | -0.138
